We go through 125 sequences from the supplement of paper PMC9112550, “Optimization of the antimicrobial peptide Bac7 by deep mutational scanning” (BMC Biology, 2022).

In the data set the test system is Escherichia coli TOP10. Briefly: shrunken log2 fold change of peptide-encoding DNA abundance (4.5 h post-induction vs induction); higher = less antimicrobial activity (less host growth inhibition). The following applies: time post-induction: 4.5 h; library: site-saturation at positions 5, 18, 19, 20.
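Further: peptides expressed intracellularly from a pBAD plasmid library in pooled LB shake-flask culture, induced with 0.3% L-arabinose, DNA abundance read by NGS, three biological replicates, DESeq2 with apeglm shrinkage.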

As to RRIRSRPPRLPRPRPRPWRLPRP, the “shrunken log2 fold change” value was 0.0899.
To RRIRHRPPRLPRPRPRPQCRPRP belongs -0.0351; to RRIRYRPPRLPRPRPRPMRIPRP, 0.0121; to RRIRQRPPRLPRPRPRPACNPRP, 0.0438.
As for RRIRDRPPRLPRPRPRPAPSPRP, the figure is 0.367; as for RRIRIRPPRLPRPRPRPPGSPRP, 0.0671.
In the case of RRIRMRPPRLPRPRPRPIRTPRP, the “shrunken log2 fold change” value is -0.0696.
As for RRIRHRPPRLPRPRPRPQCWPRP, the figure is -0.112; as for RRIRIRPPRLPRPRPRPLKAPRP, -0.02.
To RRIRFRPPRLPRPRPRPRLDPRP belongs 0.0416; to RRIRTRPPRLPRPRPRPMGDPRP, -0.0264; to RRIRRRPPRLPRPRPRPWEPPRP, 0.0979.
To RRIRQRPPRLPRPRPRPWQGPRP belongs -0.137; to RRIRVRPPRLPRPRPRPPRDPRP, 0.303.
With RRIRGRPPRLPRPRPRPPNGPRP, the “shrunken log2 fold change” value is 0.534.
To RRIRPRPPRLPRPRPRPNGSPRP belongs 0.0884.
As for RRIRWRPPRLPRPRPRPRKVPRP, the figure is 0.302; as for RRIRVRPPRLPRPRPRPTEIPRP, 0.221.
To RRIRQRPPRLPRPRPRPENIPRP belongs -0.0809.
In the case of RRIRERPPRLPRPRPRPSIKPRP, the “shrunken log2 fold change” value was -0.755.
As for RRIRCRPPRLPRPRPRPANYPRP, the figure is -0.342; as for RRIRGRPPRLPRPRPRPWGCPRP, 0.702.
As for RRIRNRPPRLPRPRPRPMTVPRP, the figure is -0.12.
To RRIRWRPPRLPRPRPRPLPAPRP belongs 1.25.
Turning to RRIRTRPPRLPRPRPRPVYDPRP, the “shrunken log2 fold change” value was -0.156.
To RRIRPRPPRLPRPRPRPYKSPRP belongs -0.0798; to RRIRQRPPRLPRPRPRPSGAPRP, 0.054.
As for RRIRDRPPRLPRPRPRPVYAPRP, the “shrunken log2 fold change” value was -0.025.
As for RRIRGRPPRLPRPRPRPVRTPRP, the figure is 1.3; as for RRIRNRPPRLPRPRPRPQVEPRP, 0.0172.
As for RRIRIRPPRLPRPRPRPMLRPRP, the figure is -0.119.
As for RRIRHRPPRLPRPRPRPHSYPRP, the figure is -0.191; as for RRIRTRPPRLPRPRPRPMMWPRP, 0.00735; as for RRIRTRPPRLPRPRPRPVKHPRP, -0.411.
For RRIRRRPPRLPRPRPRPGMTPRP, the “shrunken log2 fold change” value was 0.129.
As for RRIRNRPPRLPRPRPRPWNAPRP, the figure is -0.255; as for RRIRSRPPRLPRPRPRPEPSPRP, 0.859; as for RRIRIRPPRLPRPRPRPDFNPRP, -0.701.
As for RRIRHRPPRLPRPRPRPSSGPRP, the figure is -0.427; as for RRIRERPPRLPRPRPRPLRWPRP, 0.459.
As for RRIRRRPPRLPRPRPRPTCHPRP, the figure is 0.0647; as for RRIRERPPRLPRPRPRPPRWPRP, 0.508; as for RRIRSRPPRLPRPRPRPMNWPRP, -0.0283.
For the sequence RRIRIRPPRLPRPRPRPQHIPRP, the “shrunken log2 fold change” value was -0.542.
As for RRIRPRPPRLPRPRPRPWHCPRP, the figure is -0.0956; as for RRIRMRPPRLPRPRPRPENQPRP, 1.86.
To RRIRHRPPRLPRPRPRPLWLPRP belongs 0.0573; to RRIRQRPPRLPRPRPRPSEEPRP, -0.226; to RRIRERPPRLPRPRPRPMLTPRP, 0.151.
Turning to RRIRYRPPRLPRPRPRPHHKPRP, the “shrunken log2 fold change” value was -0.319.
As for RRIRFRPPRLPRPRPRPIRWPRP, the “shrunken log2 fold change” value is 0.0239.
To RRIRLRPPRLPRPRPRPWDTPRP belongs 0.0949; to RRIRVRPPRLPRPRPRPYVPPRP, -0.398; to RRIRTRPPRLPRPRPRPSSQPRP, -0.153.
To RRIRKRPPRLPRPRPRPLDIPRP belongs -0.0215; to RRIRPRPPRLPRPRPRPQKWPRP, 0.17.
As for RRIRWRPPRLPRPRPRPANIPRP, the figure is -0.884; as for RRIRRRPPRLPRPRPRPRLWPRP, 0.273.
For the sequence RRIRPRPPRLPRPRPRPEVIPRP, the “shrunken log2 fold change” value came out at 0.0141.
As for RRIRNRPPRLPRPRPRPEVAPRP, the figure is 0.418; as for RRIRERPPRLPRPRPRPCTKPRP, -0.63.
As to RRIRRRPPRLPRPRPRPWWVPRP, the “shrunken log2 fold change” value was 0.0496.
As for RRIRLRPPRLPRPRPRPNTFPRP, the figure is -0.348.
In the case of RRIRFRPPRLPRPRPRPHKLPRP, the “shrunken log2 fold change” value was -0.377.
On to RRIRHRPPRLPRPRPRPDTIPRP, for which the “shrunken log2 fold change” value was -0.0628.
As for RRIRFRPPRLPRPRPRPTEVPRP, the figure is -0.0247; as for RRIRGRPPRLPRPRPRPVEWPRP, 0.0602; as for RRIRERPPRLPRPRPRPGMTPRP, -0.324.
As for RRIRNRPPRLPRPRPRPPTMPRP, the “shrunken log2 fold change” value is -0.126.
To RRIRCRPPRLPRPRPRPHMKPRP belongs -1.1; to RRIRERPPRLPRPRPRPPWPPRP, 0.408; to RRIRARPPRLPRPRPRPIQMPRP, 0.0579.
To RRIRARPPRLPRPRPRPDLSPRP belongs 0.209; to RRIRARPPRLPRPRPRPSVPPRP, -0.179.
To RRIRRRPPRLPRPRPRPCGQPRP belongs 0.205.
Take RRIRTRPPRLPRPRPRPNLEPRP: the “shrunken log2 fold change” value was -0.0562.
As for RRIRSRPPRLPRPRPRPWHVPRP, the figure is -0.0882; as for RRIRHRPPRLPRPRPRPYSPPRP, -0.0769; as for RRIRDRPPRLPRPRPRPMNKPRP, -0.381.
To RRIRMRPPRLPRPRPRPNTKPRP belongs -0.0097; to RRIRFRPPRLPRPRPRPCFLPRP, -0.623.
To RRIRFRPPRLPRPRPRPWPVPRP belongs 0.139; to RRIRCRPPRLPRPRPRPQCRPRP, -0.421.
In the case of RRIRSRPPRLPRPRPRPCVKPRP, the “shrunken log2 fold change” value was -0.414.
To RRIRTRPPRLPRPRPRPVSFPRP belongs -0.114; to RRIRWRPPRLPRPRPRPYKDPRP, -0.33; to RRIRDRPPRLPRPRPRPARFPRP, 0.446.
Consider RRIRARPPRLPRPRPRPTYHPRP, for which the “shrunken log2 fold change” value is -0.225.
RRIRCRPPRLPRPRPRPWSHPRP: the “shrunken log2 fold change” value was -0.0223.
As for RRIRIRPPRLPRPRPRPQWFPRP, the figure is -0.0117; as for RRIRQRPPRLPRPRPRPLWLPRP, 0.0736; as for RRIRNRPPRLPRPRPRPCGPPRP, -0.0549.
To RRIRVRPPRLPRPRPRPGSNPRP belongs 0.0377; to RRIRDRPPRLPRPRPRPGWKPRP, 0.136.
Consider RRIRVRPPRLPRPRPRPYFNPRP, for which the “shrunken log2 fold change” value was -0.729.
With RRIRMRPPRLPRPRPRPLFGPRP, the “shrunken log2 fold change” value was found to be 0.232.
To RRIRKRPPRLPRPRPRPCCKPRP belongs 0.099; to RRIRRRPPRLPRPRPRPAKHPRP, 0.219.
RRIRERPPRLPRPRPRPDREPRP: the “shrunken log2 fold change” value is -0.0729.
As for RRIRMRPPRLPRPRPRPKHKPRP, the figure is 0.562; as for RRIRNRPPRLPRPRPRPAWKPRP, 0.122; as for RRIRWRPPRLPRPRPRPNRLPRP, -0.0743.
To RRIRGRPPRLPRPRPRPNCAPRP belongs 0.811; to RRIRQRPPRLPRPRPRPGGRPRP, 0.456; to RRIRPRPPRLPRPRPRPVIRPRP, -0.074.
Consider RRIRERPPRLPRPRPRPNMLPRP, for which the “shrunken log2 fold change” value is -0.753.
As for RRIRYRPPRLPRPRPRPVGSPRP, the figure is -0.277.
As for RRIRNRPPRLPRPRPRPIKTPRP, the figure is -0.0156.
As to RRIRLRPPRLPRPRPRPPDAPRP, the “shrunken log2 fold change” value was 0.524.
On to RRIRFRPPRLPRPRPRPHHFPRP, for which the “shrunken log2 fold change” value is -0.053.
Turning to RRIRIRPPRLPRPRPRPYGNPRP, the “shrunken log2 fold change” value was -1.18.
As for RRIRWRPPRLPRPRPRPQNWPRP, the figure is 0.215; as for RRIRIRPPRLPRPRPRPQIHPRP, -0.796.
To RRIRVRPPRLPRPRPRPANTPRP belongs -0.0315; to RRIRNRPPRLPRPRPRPDMHPRP, -0.0698; to RRIRSRPPRLPRPRPRPQYHPRP, -0.9.
As for RRIRFRPPRLPRPRPRPDTDPRP, the “shrunken log2 fold change” value came to 0.479.
As for RRIRFRPPRLPRPRPRPIPLPRP, the figure is -0.483; as for RRIRHRPPRLPRPRPRPSFQPRP, -0.652.
To RRIRARPPRLPRPRPRPPDCPRP belongs 0.56; to RRIRKRPPRLPRPRPRPNEPPRP, 0.027; to RRIRSRPPRLPRPRPRPPVRPRP, 0.337.
To RRIRHRPPRLPRPRPRPVKMPRP belongs -0.0874; to RRIRIRPPRLPRPRPRPMMWPRP, -0.00731; to RRIRPRPPRLPRPRPRPFLEPRP, -0.214.
